This assay concerns the target transmembrane Crumbs2 (CRB2TM) (mouse (endogenous in E15.5 spinal cord sections)) (UniProt Q80YA8).

For one substance, apically localised ZO-1 in MDCK cells seeded results are on record in paper PMC7108746.

Sequence of UniProt Q80YA8 (Q80YA8 36-1282): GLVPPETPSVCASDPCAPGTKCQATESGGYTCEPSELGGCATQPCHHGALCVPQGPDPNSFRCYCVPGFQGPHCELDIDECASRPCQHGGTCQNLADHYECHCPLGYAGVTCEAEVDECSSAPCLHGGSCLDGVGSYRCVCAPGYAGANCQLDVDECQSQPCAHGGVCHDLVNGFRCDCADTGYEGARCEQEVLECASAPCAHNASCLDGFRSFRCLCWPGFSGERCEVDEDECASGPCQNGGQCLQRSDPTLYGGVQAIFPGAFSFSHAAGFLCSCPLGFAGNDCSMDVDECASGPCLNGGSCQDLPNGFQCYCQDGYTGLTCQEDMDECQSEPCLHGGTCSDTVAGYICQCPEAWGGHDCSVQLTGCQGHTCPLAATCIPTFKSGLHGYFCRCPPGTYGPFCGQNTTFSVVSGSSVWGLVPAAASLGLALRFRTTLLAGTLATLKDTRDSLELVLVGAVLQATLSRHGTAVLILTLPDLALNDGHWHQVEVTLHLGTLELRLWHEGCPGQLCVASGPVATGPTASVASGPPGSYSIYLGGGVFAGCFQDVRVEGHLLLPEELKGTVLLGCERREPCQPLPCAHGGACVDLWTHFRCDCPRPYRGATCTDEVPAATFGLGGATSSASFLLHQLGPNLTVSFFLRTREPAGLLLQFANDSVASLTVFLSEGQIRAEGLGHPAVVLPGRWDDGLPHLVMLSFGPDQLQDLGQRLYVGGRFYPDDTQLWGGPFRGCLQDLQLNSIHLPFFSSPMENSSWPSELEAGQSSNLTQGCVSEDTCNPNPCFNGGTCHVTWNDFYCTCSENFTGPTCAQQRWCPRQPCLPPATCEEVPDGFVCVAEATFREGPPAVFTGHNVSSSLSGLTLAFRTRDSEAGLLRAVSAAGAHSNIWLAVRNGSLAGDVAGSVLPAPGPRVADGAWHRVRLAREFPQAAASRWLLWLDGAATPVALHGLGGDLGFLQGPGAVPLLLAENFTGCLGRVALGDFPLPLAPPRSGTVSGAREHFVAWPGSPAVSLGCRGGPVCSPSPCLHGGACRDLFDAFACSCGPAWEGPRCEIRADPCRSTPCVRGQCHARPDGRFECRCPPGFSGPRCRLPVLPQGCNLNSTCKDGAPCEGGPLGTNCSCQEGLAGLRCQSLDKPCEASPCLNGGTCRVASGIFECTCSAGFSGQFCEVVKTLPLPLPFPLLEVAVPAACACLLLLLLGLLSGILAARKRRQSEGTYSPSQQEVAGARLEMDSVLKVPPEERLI

As for “secreted Crumbs2 (CRB2S), His-tagged (natural protein)”, the apically localised ZO-1 in MDCK cells seeded at high density and cultured with high concentrations of CRB2S (77% of cells in control medium) was 23%.
